# Data published in patent US20200147235A1 (AbbVie / Abbott, published 2020).
# Numbering of substitutions follows the chain as printed.
# B1: huAb101 (antibody, V domains shown)
# VH: EVQLVESGGGLVKPGGSLRLSCATSGFTFIDYYMSWVRQAPGKGLEWLGFIRNKANRYTTEYSASVKGRFTISRDNSKSILYLQMNSLKTEDTAVYYCTRDRPAWFVYWGQGTLVTVSS
# VL: DIVMTQTPLSLPVTPGEPASISCKSSQSLLYSSNQKNYLAWYLQKPGQSPQLLIYWASTRESGVPDRFSGSGSGTDFTLKISRVEAEDVGVYYCQQYYSYPYTFGGGTKVEIK
# notes: Framework re-engineered humanized clone (parent huAb3v1), expressed as full-length IgG
# B2: huAb102 (antibody, human IgG1, kappa, L234A L235A, V domains shown)
# VH: B1 VH with K13Q
# VL: DIVMTQTPLSLPVTPGEPASISCKSSQSLLYSSNQKNYLAWYLQKPGQSPQLLIYWASTRESGVPDRFSGSGSGTDFTLKISRVEAEDVGVYYCQQYYSYPYTFGGGTKVEIKR
# notes: Framework re-engineered humanized clone (parent huAb3v1); also called CL-huAb102
# B3: huAb107 (antibody, V domains shown)
# VH: EVQLVESGGGLVQPGGSLRLSCAASGFTFSDYTMAWVRQAPGKGLEWVATIIYSGRGTYYRDAVKGRFTISRDNAKNTLYLQMNSLRAEDTAVYYCARQSDDTYYYWGYFDYWGQGTMVTVSS
# VL: B1 VL with S22N, Y31F, S33G, E61Q, V91I, S99D, Y100V, G106Q, V110L
# notes: Framework re-engineered humanized clone (parent huAb15v2), expressed as full-length IgG
# B4: huAb104 (antibody, human IgG1, kappa, L234A L235A, V domains shown)
# VH: B1 VH with K13Q, N56Y, R57G
# VL: B2 VL
# notes: Framework re-engineered humanized clone (parent huAb3v2); also called CL-huAb104
# B5: huAb103 (antibody, V domains shown)
# VH: B1 VH with N56Y, R57G
# VL: B1 VL
# notes: Framework re-engineered humanized clone (parent huAb3v2), expressed as full-length IgG; also called haAb103
# B6: Anti-CD98 rat hybridoma antibody Ab7 (antibody, V domains shown)
# VH: QVQLKESGPGLVQPSQTLSLTCTVSGFSLSTYGVIWVRQPPGKGLEWMGVIWANGNTNYNSTLKSRLSISRDTSKSQVYLKMNSLQTEDTATYYCARHYYDGTYYYGYFDYWGQGVMVTVSS
# VL: DIVMTQTPSSQAVSAGEKVTMNCKSSQSLLYSENKKNYLAWYQQKPGQSPKLLIYWASTRESGVPDRFIGSGSGTDFTLTISSVQAEDLAVYYCQQYYYFPYTFGPGTKLELK
# B7: Anti-CD98 rat hybridoma antibody Ab6 (antibody, V domains shown)
# VH: B6 VH with V12A, V37L, A53T, K75E, K81Q, T103A
# VL: B6 VL with N22S, P106A
# B8: Anti-CD98 rat hybridoma antibody Ab9 (antibody, V domains shown)
# VH: B6 VH with T23A, T31N, G49A, A53T
# VL: B6 VL with N22S, S32T, I69M, T103M, P106A
# B9: Anti-CD98 murine hybridoma antibody Ab4 (antibody, V domains shown)
# VH: EVKLVESGGGLVQPGGSLRLSCTTSGFTFTDYYMSWVRQPPGKALEWLGFIRNKATIYTTEYSASVKGRFTISRDNSQSILYLQMNTLRAEDSATYYCARASYGNSEGWFAYWGQGTLVTVSA
# VL: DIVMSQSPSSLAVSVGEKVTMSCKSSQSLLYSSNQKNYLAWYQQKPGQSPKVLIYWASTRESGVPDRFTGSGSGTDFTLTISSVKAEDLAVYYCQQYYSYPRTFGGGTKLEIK
# B10: Anti-CD98 murine hybridoma antibody Ab5 (antibody, V domains shown)
# VH: B9 VH with T23A, S35T, T56N, I57G, Q78L, G104V
# VL: DIVMSQSPSSLAVSVGEKVTMSCKSSQSLLYSSNQKNYLAWYQQKLGQSPKLLIYWASTRESGVPDRFTGSGSGTDFTLTISSVKAEDLAVYYCQHYYSYPRTFGGGTKLEIK
# B11: Anti-CD98 murine hybridoma antibody Ab2 (antibody, V domains shown)
# VH: B9 VH with T23A, T28N, T56N, I57G, N76D
# VL: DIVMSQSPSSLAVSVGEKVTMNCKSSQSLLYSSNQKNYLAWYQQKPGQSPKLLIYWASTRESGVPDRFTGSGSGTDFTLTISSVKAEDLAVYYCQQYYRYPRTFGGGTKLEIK
# B12: Anti-CD98 rat hybridoma antibody Ab11 (antibody, V domains shown)
# VH: EVQLVESGGGLVQPGRSLKLSCAASGFTFSDYAMAWVRQAPKKGLEWVAGIIYDGRGTYYRDSVKGRFTISRDNAKSTLYLQMDSLRSEDTATYYCARQGDGTYYYWGYFDYWGQGVMVTVSS
# VL: DIVMTQSPSSLAVSAGETVTINCRSSQSLLSSGNQKNYLAWYQQKPGQSPKLLIYWASTRQSGVPDRFIGSGSGTDFTLTISSVQAEDLAIYYCQQYYDTPYTFGAGTKLELK
# B13: Anti-CD98 rat hybridoma antibody Ab15 (antibody, V domains shown)
# VH: B12 VH with A33T, G50T, G100S
# VL: B12 VL with R24K, S31F, S82R, T100S
# B14: Anti-CD98 rat hybridoma antibody Ab10 (antibody, V domains shown)
# VH: B12 VH with G44S, G50T, Y60C, Y105H
# VL: B12 VL with R24K, L110V, E111D
# B15: Anti-CD98 murine hybridoma antibody Ab3 (antibody, V domains shown)
# VH: EVKLVESGGGLVQPGNSLRLSCATSGFTFIDYYMSWVRQSPGKALEWLGFIRNKANGYTTEYSASVKGRFTISRDNSQSILYLQMDTLRAEDSATYYCTRDRPAWFVYWGQGTLVTVSA
# VL: B10 VL with L46P, I81F, K85R, H96Q, R102Y
# Molecular target: T1, Cynomolgus monkey CD98 ECD with C-terminal His-tag (SEQ ID NO: 127) (cynomolgus monkey, UniProt P08195 105-529 (human entry))
# T1 construct: The entry includes the linker and the polyhistidine tag; also called cyCD98 ECD
# T1 chain: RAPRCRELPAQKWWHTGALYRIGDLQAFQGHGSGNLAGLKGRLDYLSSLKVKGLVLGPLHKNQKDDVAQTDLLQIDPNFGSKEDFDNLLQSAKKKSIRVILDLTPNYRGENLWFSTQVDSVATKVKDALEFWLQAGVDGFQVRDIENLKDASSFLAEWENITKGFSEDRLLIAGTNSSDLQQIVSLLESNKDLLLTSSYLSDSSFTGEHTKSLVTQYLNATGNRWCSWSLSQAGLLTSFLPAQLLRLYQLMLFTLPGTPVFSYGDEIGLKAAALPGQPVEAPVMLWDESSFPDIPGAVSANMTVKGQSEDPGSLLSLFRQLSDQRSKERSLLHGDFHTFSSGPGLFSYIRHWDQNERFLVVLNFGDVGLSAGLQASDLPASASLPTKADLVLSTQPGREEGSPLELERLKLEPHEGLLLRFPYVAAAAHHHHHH
# Assay: SPR (Biacore), recombinant CD98 ECD
Binder,Kd,koff,kon
B1,23 nM,0.00067 s⁻¹,30000 M⁻¹ s⁻¹
B2,21 nM,0.00068 s⁻¹,32000 M⁻¹ s⁻¹
B3,2.7 nM,8.7e-05 s⁻¹,33000 M⁻¹ s⁻¹
B4,14 nM,0.00048 s⁻¹,34000 M⁻¹ s⁻¹
B5,14 nM,0.00044 s⁻¹,31000 M⁻¹ s⁻¹

# Molecular target: T2, Human CD98 ECD with N-terminal His-tag (human, UniProt P08195 105-529)
# T2 construct: The entry includes the linker and the polyhistidine tag; also called huCD98 ECD
# T2 sequence: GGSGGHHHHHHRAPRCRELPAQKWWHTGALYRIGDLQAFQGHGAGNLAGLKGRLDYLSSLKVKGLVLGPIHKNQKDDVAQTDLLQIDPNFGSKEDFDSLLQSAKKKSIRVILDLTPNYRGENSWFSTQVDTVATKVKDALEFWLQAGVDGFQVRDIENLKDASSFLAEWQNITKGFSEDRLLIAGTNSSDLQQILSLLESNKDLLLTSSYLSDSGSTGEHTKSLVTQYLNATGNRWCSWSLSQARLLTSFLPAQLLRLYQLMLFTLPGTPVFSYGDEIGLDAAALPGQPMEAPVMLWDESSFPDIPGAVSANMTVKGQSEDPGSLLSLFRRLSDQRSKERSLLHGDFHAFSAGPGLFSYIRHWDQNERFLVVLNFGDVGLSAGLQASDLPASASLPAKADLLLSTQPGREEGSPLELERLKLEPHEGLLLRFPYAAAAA
# Assay: SPR (Biacore), recombinant CD98 ECD
Binder,Kd,koff,kon
B1,6.1 nM,0.0018 s⁻¹,290000 M⁻¹ s⁻¹
B2,5.5 nM,0.0018 s⁻¹,330000 M⁻¹ s⁻¹
B3,0.33 nM,3.8e-05 s⁻¹,110000 M⁻¹ s⁻¹
B4,2 nM,0.00091 s⁻¹,450000 M⁻¹ s⁻¹
B5,3.4 nM,0.00059 s⁻¹,180000 M⁻¹ s⁻¹

# Molecular target: T3, Human CD98 ECD with C-terminal His-tag (human, UniProt P08195 105-529)
# T3 construct: also called huCD98 ECD; recombinant human CD98 extracellular domain
# T3 sequence: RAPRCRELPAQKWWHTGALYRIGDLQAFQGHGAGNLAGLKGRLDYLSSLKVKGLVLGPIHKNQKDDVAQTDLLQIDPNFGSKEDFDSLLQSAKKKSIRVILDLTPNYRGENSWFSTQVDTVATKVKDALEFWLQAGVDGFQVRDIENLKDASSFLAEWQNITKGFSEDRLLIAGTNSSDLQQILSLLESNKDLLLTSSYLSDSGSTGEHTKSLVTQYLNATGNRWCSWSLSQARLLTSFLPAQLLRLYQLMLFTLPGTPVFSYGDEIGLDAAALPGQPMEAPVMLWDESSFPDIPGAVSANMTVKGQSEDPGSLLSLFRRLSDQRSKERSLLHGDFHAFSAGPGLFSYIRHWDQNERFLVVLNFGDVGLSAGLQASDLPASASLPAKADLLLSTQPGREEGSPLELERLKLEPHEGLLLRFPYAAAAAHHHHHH
# Assay: SPR Biacore, anti-Fc capture of mAb, CD98 ECD analyte
# Experimental: (§1) The binding kinetics of these purified mouse and rat monoclonal anti-CD98 antibodies for purified recombinant CD98 protein (extracellular domain. ECD) were determined by surface plasmon resonance-based measurements made on Biacore T100/T200 instruments (GE Healthcare, Piscataway, N.J.) at 25° C. using an anti-Fc capture assay approach. Binding kinetic measurements were made in the assay buffer HBS-EP+: 10 mM Hepes, pH 7.4, 150 mM NaCl, 3 mM EDTA, 0.05% Tween 20). For example, approximately 8000 RU of anti-Fc (species specific) polyclonal antibody (Thermo Fisher Scientific Inc. Rockford, Ill.) diluted in 10 mM sodium acetate (pH 4.5) was directly immobilized across a CM5 research grade biosensor chip using a standard amine coupling kit according to manufacturer's instructions and procedures at 25 μg/ml. Unreacted moieties on the biosensor surface were blocked with ethanolamine. The test antibody to be captured as a ligand was diluted in running buffer to ˜0.5 μg/mL and injected over anti-Fc surface at a flow rate of 10 μL/min, CD98 binding and dissociation were observed under a continuous flow rate of 80 μL/min. Human and cynomolgus monkey CD98 ECDs, both with a C-terminal His-tag, are used for this study (Table 3). After each cycle the anti-Fc capture surface was regenerated using 10 mM Glycine-HCl, pH 1.5. During the assay, all measurements were referenced against the capture surface alone (i.e., with no captured test antibody) and buffer-only injections (no antigen) were used for double referencing. For kinetic analysis, rate equations derived from the 1:1 Langmuir binding model were fitted simultaneously, globally and with mass transfer term included to multiple referenced antigen binding curves using Biacore T100T200 Evaluation software.
Binder,Kd,koff,kon
B6,0.76 nM,0.00015 s⁻¹,200000 M⁻¹ s⁻¹
B7,1.1 nM,0.00016 s⁻¹,150000 M⁻¹ s⁻¹
B8,1.2 nM,0.00015 s⁻¹,130000 M⁻¹ s⁻¹
B9,0.83 nM,3.7e-05 s⁻¹,44000 M⁻¹ s⁻¹
B10,2.2 nM,0.00012 s⁻¹,52000 M⁻¹ s⁻¹
B11,1.1 nM,8.1e-05 s⁻¹,73000 M⁻¹ s⁻¹
B12,18 nM,0.0012 s⁻¹,65000 M⁻¹ s⁻¹
B13,0.68 nM,5.3e-05 s⁻¹,77000 M⁻¹ s⁻¹
B14,2 nM,0.00024 s⁻¹,130000 M⁻¹ s⁻¹
B15,15 nM,0.003 s⁻¹,200000 M⁻¹ s⁻¹

# Molecular target: T4, Cynomolgus monkey CD98 ECD with C-terminal His-tag (cynomolgus monkey, UniProt P08195 105-529 (human entry))
# T4 construct: also called cyCD98 ECD; recombinant cynomolgus monkey CD98 extracellular domain
# T4 chain: T1 chain
# Assay: as above
# Experimental: as §1
Binder,Kd,koff,kon
B6,3 nM,0.00027 s⁻¹,91000 M⁻¹ s⁻¹
B7,5.9 nM,0.00037 s⁻¹,62000 M⁻¹ s⁻¹
B8,9.9 nM,0.00051 s⁻¹,51000 M⁻¹ s⁻¹
B9,1.8 nM,1.7e-05 s⁻¹,9700 M⁻¹ s⁻¹
B10,11 nM,0.00022 s⁻¹,21000 M⁻¹ s⁻¹
B11,37 nM,0.00086 s⁻¹,24000 M⁻¹ s⁻¹
B12,72 nM,0.0017 s⁻¹,24000 M⁻¹ s⁻¹
B13,3.3 nM,9.6e-05 s⁻¹,29000 M⁻¹ s⁻¹
B14,7.8 nM,0.00049 s⁻¹,62000 M⁻¹ s⁻¹
B15,30 nM,0.0012 s⁻¹,38000 M⁻¹ s⁻¹
